The sequences below were run on K4 kissing-loop RNA reporter (assay: apparent KD of K4 kissing-loop reporter; higher = weaker reporter binding). Conditions: Eterna round: R107; input ligand: theophylline 20 uM.
Experimental: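 RNA-MaP round R107: designed RNA switches with theophylline, tryptophan, arginine or FMN aptamers are transcribed on-chip within common flanks. They are titrated with a labelled K4 kissing-loop RNA reporter in RNA-MaP buffer (100 mM Tris pH 7.5, 80 mM KCl, 4 mM MgCl2), without ligand or with the indicated ligand. Median apparent KD per design.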
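Also: bound reporter read as fluorescence of individual clusters on recovered sequencing chips by microscopy, with normalized cluster intensities fitted with a binding model.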

Row | Sequence | apparent KD of K4 kissing-loop reporter [nM]
1 | GCGGUGUUAUGCCCGAGGGUAUAGUUGCCAAAGGAUAUGAUUGUUGUCAGAAGGUUGCGCUUGAUCAGUGAUGUUGGUCUCCAAC [theeternabot_sameState_KL_FMN_A_12] | 342
2 | UGACAUUGCUCAGAUACCAGACCUGAGGAUCACCCUGGUGCCAAACGUACAAUAAUAAAUGUCCCUUGGCAGCUGAGCAAUGUCU [TheoBX 14] | 139
3 | AUUUUCAUUUUAUUAUAUAACUUUUCAGAAGGAGCGUGGAAGUUCACAGGUAGGUCGCUGAAUAUUGGACUAGUGAUGUUAGUUA [JR_Nu_SSArginiA_Sub022] | 259
4 | GUUACGCAUGGAAGGAGCGCUCUCCGGUUGAUCGACACAGUGAUGUUGUGGUUCUACCGUAAGCAGGUAGGUCGCCAUGUGUAAC [Ex Arginine B K4 14] | 966
5 | AAAUCGUUCAGAAGGAGCGUGGAUUAUUCUUAAAUAUUUAUUACGAGUGAUGUUCGUAAUUCACAGGUAGGUCGCUGAUCGAUAA [JR_ExcArginiB_Sub003] | 121
6 | GGUGCUGUCUGUGCCGCCCUCCUCGUUCCUCGAGGACCGGUACGGCCGCCACUCGAGUGAUGUUCGGGUAGCGAUCCCUGCUAGC [Bdazzled - #17 Exc. Tryptophan A] | 191
7 | AAACAGCACUGGGAGUGAUGUUCUCAGUGACGAGGACCGGUACGGCCGCCACUCGCGAGAGAACUAGUCUAGACUUGACUGCAUA [Excl Tryptophan A V15] | 149
8 | GGAUAGGACAGAGGAUAUGGUAGUGAUGUUACCAACAGCCUACUGUCAAUAAAGACGGUUGGCUGACCAGAAGGCUGUCCUAUCG [Mod of Eli's FmnBX 26 v1] | 148
9 | ACCAUCAAAGAUGGCCAGGACUCAACUGAUACCAGAGUGGAGACACUCCCUUGGCAGCAGGUGAGUGAUGUUCACGAGUCCUGGA [Omel KL Theo A SS B v9] | 599
10 | AGGUUUUGAUCAGGAUAUGCAUUGACGAUGAGAAUAUAGUGAUGUUAUAUACUACGAAUUAGUAAAGUAGAAGGGAUUGAGGUUU [SSFMNB.aB] | 898
11 | UUUUAAAUGUCUGAUACCAGAGAAAAUUUAUGUAGUGAUGUUAUAUACAAAUUAAAUAAGCUCCCUUGGCAGCAGUAUUAAUUUU [AstrosExc-TheB#9] | 623

Same assay, conditions: Eterna round: R107; input ligand: tryptophan 2.4 mM

Row | Sequence | apparent KD of K4 kissing-loop reporter [nM]
12 | GUAUCGCUAGGAGGAUAUUUCAAAUAAUAAAUAAAUGGAUAUUCGGAGUGAUGUUCCGAUUUACGGAAAGAAGGCCUAGUGAUAC [FMN B 2] | 150
13 | AAACAUCACUGGGAGUGAUGUUCUCAGUGACGAGGACCGGUACGGCCGCCACUCGCGAGAGAUAUAAUUAAGUAAUGACAUCAUU [Excl Tryptophan A V6] | 327
14 | ACCUAGUAGACAGGAUAUCACCAUGACAGUGAUGUUGUCAUGCUCGAUUUGAGGAAACUCAGAUCGUGAGAAGGGUCUAACGACU [FMN B SS t7] | 158
15 | CCUAUCUCAUACGAUACCAGUGAAUUUAUAUUUAUUAGCAGUGAUGUUGCAUUCCAAGUACACCCUUGGCAGCGUAUGGGAUAGG [Ex Theophylline B K4 22] | 140
16 | UCCUAGGCUCGAAAGAGCCUAGGAUUGACUCAGGAUAUCCGGAAACGGAGAAGGGAGUCACUAGUGAUGUUAGGGAUUCCCUAUU | 94.2
17 | GGAUAGGACAGAGGAUAUCUCUGAGGCAAGAAAACUUGUCUCAAAAGAGAUGACUCAGUGAUGUUGAGAGAAGGCUGUCCUAUCG [FmnBX 8 - #SwitchBubble #StaticStem] | 153
18 | GGGCCUAUUGAUGCUGGAGCAAUUCUGGAAGGAGCGCUCAAAGGAGCAGGUAGGUCGCCAGUAUGCAAGGGCAGUGAUGUUGCCC [Ersoarxe] | 189
19 | UGGAUGUAGUGAUGUUAUAUAGAGAGUGAUACCAGUUUAGAGAAGAACCCUUGGCAGCAUAGAAGAGUAUCAUUGGAGAAGAAUG [ExTheophyl.Ar] | 244
20 | UUAGCCUAGCCAUAGUGAUGUUGUGGAAUACGAGGACCGGUACGGCCGCCACUCGCUCGACGGUGAUGACAUCAACGACCUUUAU [theeternabot_sameState_KL_Trp_A_38] | 285
21 | AGUACGGACGCGGCCGCCACUCAGGAGAAGAAGGUAGUGAUGUUGCUUAUGGAGAGAUCAAUCAAGAGGACCGGGUGCCGUGCAA [#07 K4 Tryptophan B Same State] | 338
22 | UGGCGGCAAGGGUUAUUGGAAAGUAUUCGUCGAGGACCGGUACGGCCGCCACUCGAACACCAGUGAUGUUGGUCUGGUUUAAGCU [Exclusion Tryptophan A GF 22] | 321
23 | UCGCUCGAGUAAGGAUAUCAAUAUCAAAGGUCGUAGUGAUGUUAUACCAGGCCAAUUUGGCGGUAGUGAGAAGGUACUAGCAGUU [theeternabot_sameState_KL_FMN_B_38] | 405
24 | GGAUAGGAUAGAGGAUAUGGUUUAUGCAAGAAUAACUUAUCGUGUAAAUCCAUAGGGAGUGAUGUUCCAGAAGGCUGUCCUAUCG [MatMod 12 - Jieux - Exclusion - FMN B] | 173
25 | GGAGGCCAGGCCUGCGAAGUGAUGUUUUGACGAGGACCGGUACGGCCGCCACUCGAAUGUUCUAUCAUCGUACGAACUUCUGCGU [theeternabot_exclusion_KL_Trp_A_26] | 394
26 | AGUGUUAGGUUAGAUACCAGCCGUUCGUGAAUAGUCUUCGAACCGCCAGUGAUGUUGGCAGGCCCUUGGCAGCUAACAGAACAGA [Lagelare] | 208
27 | UGUAAGCGCGUAGAUACCAGCAGACGAGUGAUGUUCGAGAGAUUAAGGAAAAGAAAGUGAUGCCCUUGGCAGCUAAUCAUAAGCG [whbob_Ex_Theo_B_sa95] | 182
28 | GAGUCGGCACAAGGAUAUAGGUGUAGUGAUGUUAUGUCUCCUUGACUCACUCGUUACCCUCAACGUCUAGAAGGUGUGAAUGCAG [theeternabot_exclusion_KL_FMN_B_46] | 251
29 | CGCGCGCGCCGCAAGGCGCGCGCGAACGAUACCAGUAUAUAAGAAUACCCUUGGCAGCGUAAGAAAGCUAUAGUGAUGUUGUAGA [#19 K4 Theophylline A Same State] | 273
30 | AUUUUUUUAUCAGGAUAUUAGUGUUGGUUUGUUUUGUUAGUGAUGUUGAUAUUUGUUUUAUGUAUUUAAGAAGGGAUUUAGAUGU [viuupullin] | 194
31 | AGGAGCGUGGGAUGAAAAUCGCACGCUCCUCGAGGACCGGUACGGCCGCCACUCGCUCGCGCCGAGUGAUGUUCGGCCGGCGAAC [#2 Same State - Tryptophan A Attempt #12 (HarryS)] | 556
32 | AGCAGUCACUCGAAAAACCAUCGAAGAUGGCGAGGACCGGUACGGCCGCCACUCGGAGUGAUGUUCCGAAGACUGCAAAAUAAAA [#SwitchBubble 15] | 435

Row | Sequence | apparent KD of K4 kissing-loop reporter [nM]
33 | AGUGAUGUUUUUUUUAAGAGUGAUGUUUUUCGAGGACCGGUACGGCCGCCACUCGAGUGAUGAGUGCGUUGUUGUGAUGUUUAGU [#11 K4 Tryptophan A Exclusion] | 246
34 | CAUUCGAAAUGCAGUGAUGUUGCAACCGAUACCAGUAUCGAAAGAUACCCUUGGCAGCGGAAAACCGCUACGUAUUUUUUGAAUG [Ex Theophylline A K4 26] | 237
35 | AGACUUCACCGAAGGAGCGACGUAGCCUAGUGAUGUUAGGCGCGAGAGAAAUCUCGUAUACGUCAGGUAGGUCGCGGUGAAGUCA [Omei KL Arginine B SS C v4] | 146
36 | AAUGAGGACACUUGCAACAGUCCUCGAAUACGAGGACCGGUACGGCCGCCACUCGAUAACUUGCAGUGAUGUUGCAAGUAAGAAU [(T)''-(K)'-(T)'-(T1)-(T2)-(K1)-(K2)_Design2] | 311
37 | AUUUUAUUAACUGAUACCAGACUUAAUGAUUUGUAAAUUACUAGUGAUGUUAGUGAUUCUGUCCCUUGGCAGCAGUAUUUAUUUA [JR_ExcTheophyB_Sub013] | 69.4
38 | AACACUCUGGGAGUGAUGUUCUCAAAUAACCGAGGACCGGUACGGCCGCCACUCGGAAAAGAGUGAGUCCUACGAAAAGUAGGAC [Omei inspired 3] | 152
39 | AUAGAAAAGUGGCACCCUCACUAAAACAGUCGAGGACCGGUACGGCCGCCACUCGCGCGCUUUAGUGAUGUUAAAGCUAGGCGGA | 245
40 | GGACGACAGUCGGCCGCCACUCACAGCCGCCAGUGAUGUUGGAUUGUAGCGGAGUGAUGUUUCGCGAGGACCGGGACUGCAGUCC [Same State Tryptophan B GF 15] | 460
41 | AAGCCAGUGAUGUUGGCAAAAUAAACUGAAGGAGCGCGUGAAAACGCAGGUAGGUCGCAGAACCUUGCCAACUAACACGAAAGUG [Ex Arginine A K4 19] | 287
42 | UGCGCUGUGUACUGAAAUGUCCUGCGGGAUACCAGAGUCUUUUUAUUCCCUUGGCAGCUUGAGUGAUGUUUGAUGCCGUUCUUGU [frrgmullin] | 470
43 | GCGGUGUUAUGCCCGAGGGUAUAGUUGCCAAAGGAUAUGAUUGUUGUCAGAAGGUUGCGCUUGAUCAGUGAUGUUGGUCUCCAAC [theeternabot_sameState_KL_FMN_A_12] | 337
44 | UGACAUUGCUCAGAUACCAGACCUGAGGAUCACCCUGGUGCCAAACGUACAAUAAUAAAUGUCCCUUGGCAGCUGAGCAAUGUCU [TheoBX 14] | 52.4
45 | AUUUUCAUUUUAUUAUAUAACUUUUCAGAAGGAGCGUGGAAGUUCACAGGUAGGUCGCUGAAUAUUGGACUAGUGAUGUUAGUUA [JR_Nu_SSArginiA_Sub022] | 207
46 | GUUACGCAUGGAAGGAGCGCUCUCCGGUUGAUCGACACAGUGAUGUUGUGGUUCUACCGUAAGCAGGUAGGUCGCCAUGUGUAAC [Ex Arginine B K4 14] | 828
47 | AAAUCGUUCAGAAGGAGCGUGGAUUAUUCUUAAAUAUUUAUUACGAGUGAUGUUCGUAAUUCACAGGUAGGUCGCUGAUCGAUAA [JR_ExcArginiB_Sub003] | 105
48 | GGUGCUGUCUGUGCCGCCCUCCUCGUUCCUCGAGGACCGGUACGGCCGCCACUCGAGUGAUGUUCGGGUAGCGAUCCCUGCUAGC [Bdazzled - #17 Exc. Tryptophan A] | 204
49 | AAACAGCACUGGGAGUGAUGUUCUCAGUGACGAGGACCGGUACGGCCGCCACUCGCGAGAGAACUAGUCUAGACUUGACUGCAUA [Excl Tryptophan A V15] | 205
50 | GGAUAGGACAGAGGAUAUGGUAGUGAUGUUACCAACAGCCUACUGUCAAUAAAGACGGUUGGCUGACCAGAAGGCUGUCCUAUCG [Mod of Eli's FmnBX 26 v1] | 142
51 | ACCAUCAAAGAUGGCCAGGACUCAACUGAUACCAGAGUGGAGACACUCCCUUGGCAGCAGGUGAGUGAUGUUCACGAGUCCUGGA [Omel KL Theo A SS B v9] | 740
52 | AGGUUUUGAUCAGGAUAUGCAUUGACGAUGAGAAUAUAGUGAUGUUAUAUACUACGAAUUAGUAAAGUAGAAGGGAUUGAGGUUU [SSFMNB.aB] | 518
53 | UUUUAAAUGUCUGAUACCAGAGAAAAUUUAUGUAGUGAUGUUAUAUACAAAUUAAAUAAGCUCCCUUGGCAGCAGUAUUAAUUUU [AstrosExc-TheB#9] | 552

From the supplement of paper PMC9170038
